Data from patent US20240092867A1 (UNIVERSITY OF CHICAGO, published 2024).

T1: placental growth factor (PlGF)-2 (human, UniProt P49763-3 19-170)
T1 construct: mature; Purchased in mature form
T1 sequence (looked up): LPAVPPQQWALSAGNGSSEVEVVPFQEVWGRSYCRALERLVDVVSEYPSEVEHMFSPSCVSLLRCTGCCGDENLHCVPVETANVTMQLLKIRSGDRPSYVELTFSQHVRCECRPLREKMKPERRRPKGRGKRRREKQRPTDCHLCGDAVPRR

T2: vascular endothelial growth factor (VEGF)-A121 (human, UniProt P15692-9 27-147)
T2 construct: mature; Purchased in mature form, not glycosylated
T2 sequence (looked up): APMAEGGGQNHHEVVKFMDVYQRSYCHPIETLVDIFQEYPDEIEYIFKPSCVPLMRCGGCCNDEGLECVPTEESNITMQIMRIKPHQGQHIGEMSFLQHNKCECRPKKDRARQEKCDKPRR

T3: placental growth factor (PlGF)-1 (human, UniProt P49763-2 19-149)
T3 construct: mature; Purchased in mature form
T3 sequence (looked up): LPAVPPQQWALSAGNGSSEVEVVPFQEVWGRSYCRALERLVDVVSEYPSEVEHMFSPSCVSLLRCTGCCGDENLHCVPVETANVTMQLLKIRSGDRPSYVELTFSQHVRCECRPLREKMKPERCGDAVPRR

T4: recombinant human VEGF-A145 (human, UniProt P15692-6 27-171)
T4 sequence (looked up): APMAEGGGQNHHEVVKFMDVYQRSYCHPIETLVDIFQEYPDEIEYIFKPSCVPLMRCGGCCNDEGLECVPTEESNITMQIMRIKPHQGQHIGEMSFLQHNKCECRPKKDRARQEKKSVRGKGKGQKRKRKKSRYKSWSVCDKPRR


What was measured:
[1] = molecular target: T1, placental growth factor (PlGF)-2; experiment: ELISA, peptide coated
How it was run: (§1)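 Wells coated with 10 μg/mL laminin α3/α4/α5 LG-domain peptides, BSA-coated wells as non-binding control, blocked with 2% BSA PBS-T. Recombinant human GFs added at 1 μg/mL; bound GF detected with GF-specific biotinylated antibody plus streptavidin-HRP (n=4, mean±SEM).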

[2] = molecular target: T2, vascular endothelial growth factor …; experiment: ELISA, peptide coated
How it was run: as §1

[3] = molecular target: T5, fibroblast growth factor (FGF)-2 (human, UniProt P09038 143-288); experiment: ELISA, peptide coated
T5 construct: mature; Purchased in mature form
How it was run: as §1

[4] = molecular target: T6, vascular endothelial growth factor (VEGF)-A165 (human, UniProt P15692-4 27-191); experiment: ELISA, peptide coated
T6 construct: mature; Purchased in mature form, not glycosylated
How it was run: as §1

[5] = molecular target: T7, platelet-derived growth factor (PDGF)-BB (human, UniProt P01127 82-190); experiment: ELISA, peptide coated
T7 construct: mature; Purchased in mature form
How it was run: as §1

[6] = molecular target: T3, placental growth factor (PlGF)-1; experiment: ELISA, peptide coated
How it was run: as §1

[7] = molecular target: T2, vascular endothelial growth factor …; experiment: ELISA; peptides and vWF forms coated at 50 nM, VEGF-A in solution, detected with anti-VEGF-A antibody [panel D]
Procedure: (A) Diagram of exon sequence of VEGF-A showing inclusion (+) or exclusion (−) of heparin binding domain exons for the different VEGF-A isoforms. […] Bound VEGF-A was detected using a specific antibody for VEGF-A (n=4, mean±SD). Statistical comparisons were done using ANOVA with Tukey's test compared with BSA control. **p<0.01.
(§2) ELISA was performed as previously reported1. […] After blocking with 2% BSA solution containing PBS-T, 1 μg/mL of recombinant human VEGF-A121 (PeproTech), recombinant human VEGF-A145 (R & D Systems), or recombinant human VEGF-A165 (PeproTech) was added. Bound VEGF-A was detected with 1 μg/mL of mouse anti-human VEGF-A antibody (clone: 26503, R & D systems). After 60 min of incubation, horseradish peroxidase (HRP) conjugated goat anti-mouse antibody (1:2000 dilution, Dako) was added and incubated for another 60 min. Color development and the absorbance measurement were done as described above.

[8] = molecular target: T4, recombinant human VEGF-A145; experiment: ELISA, peptide coated 50 nM
Procedure: as §2

[9] = molecular target: T6, vascular endothelial growth factor …; experiment: ELISA, peptide coated 50 nM
Procedure: as §2

T7 sequence (P01127 82-190): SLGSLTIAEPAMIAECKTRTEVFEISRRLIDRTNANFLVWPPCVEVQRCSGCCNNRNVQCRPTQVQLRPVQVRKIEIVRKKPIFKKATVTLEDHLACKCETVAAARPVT
T5 sequence (P09038 143-288): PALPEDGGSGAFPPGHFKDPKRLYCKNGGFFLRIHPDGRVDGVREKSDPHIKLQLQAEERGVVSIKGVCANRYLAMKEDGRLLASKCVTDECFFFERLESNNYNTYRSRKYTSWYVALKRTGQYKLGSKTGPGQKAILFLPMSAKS

| Binder | binding result [1] | binding result [2] | binding result [3] | binding result [4] | binding result [5] | binding result [6] | binding result [7] | binding result [8] | binding result [9] |
| --- | --- | --- | --- | --- | --- | --- | --- | --- | --- |
| ARKASRRSRQPARH (Chemically synthesized (Genscript)) [laminin α5 3312-3325 peptide (Linker)] | no binding (tested: 1 µg/mL) | no binding (tested: 1 µg/mL) | no binding (tested: 1 µg/mL) | no binding (tested: 1 µg/mL) | no binding (tested: 1 µg/mL) | no binding (tested: 1 µg/mL) | – | – | – |
| LYCEIARGYSLKRKVPDQIRSRKA (also called scrambled vWF A1 HBD peptide) [Scrambled HBD] | – | – | – | – | – | – | no binding (tested: 1 µg/mL VEGF-A121 (single concentration)) | no binding (tested: 1 µg/mL) | no binding (tested: 1 µg/mL) |
